B1: T0263018B11 A33N (VHH, name in Kabat numbering)
VHH: EVQLVESGGGVVQPGGSLRLSCAASGFTFSSYNMYWVRQAPGKGLEWVSAISSGGGSTDYADSVKGRFTISRDNSKNTLYLQMNSLRPEDTALYYCAADTLYTSLTWYSYWGQGTLVTVSS
notes: FLAG3-His6 tagged
B2: T0263018B11 D58S (VHH, name in Kabat numbering)
VHH: EVQLVESGGGVVQPGGSLRLSCAASGFTFSSYAMYWVRQAPGKGLEWVSAISSGGGSTSYADSVKGRFTISRDNSKNTLYLQMNSLRPEDTALYYCAADTLYTSLTWYSYWGQGTLVTVSS
notes: FLAG3-His6 tagged
B3: T0263018B11 D58T (VHH, name in Kabat numbering)
VHH: EVQLVESGGGVVQPGGSLRLSCAASGFTFSSYAMYWVRQAPGKGLEWVSAISSGGGSTTYADSVKGRFTISRDNSKNTLYLQMNSLRPEDTALYYCAADTLYTSLTWYSYWGQGTLVTVSS
notes: FLAG3-His6 tagged
B4: T0263018B11 F27M (VHH, name in Kabat numbering)
VHH: EVQLVESGGGVVQPGGSLRLSCAASGMTFSSYAMYWVRQAPGKGLEWVSAISSGGGSTDYADSVKGRFTISRDNSKNTLYLQMNSLRPEDTALYYCAADTLYTSLTWYSYWGQGTLVTVSS
notes: FLAG3-His6 tagged
B5: T0263018B11 F29I (VHH, name in Kabat numbering)
VHH: EVQLVESGGGVVQPGGSLRLSCAASGFTISSYAMYWVRQAPGKGLEWVSAISSGGGSTDYADSVKGRFTISRDNSKNTLYLQMNSLRPEDTALYYCAADTLYTSLTWYSYWGQGTLVTVSS
notes: FLAG3-His6 tagged
B6: T0263018B11 F29P (VHH, name in Kabat numbering)
VHH: EVQLVESGGGVVQPGGSLRLSCAASGFTPSSYAMYWVRQAPGKGLEWVSAISSGGGSTDYADSVKGRFTISRDNSKNTLYLQMNSLRPEDTALYYCAADTLYTSLTWYSYWGQGTLVTVSS
notes: FLAG3-His6 tagged
B7: T0263018B11 F29Y (VHH, name in Kabat numbering)
VHH: EVQLVESGGGVVQPGGSLRLSCAASGFTYSSYAMYWVRQAPGKGLEWVSAISSGGGSTDYADSVKGRFTISRDNSKNTLYLQMNSLRPEDTALYYCAADTLYTSLTWYSYWGQGTLVTVSS
notes: FLAG3-His6 tagged
B8: T0263018B11 G26A (VHH, name in Kabat numbering)
VHH: EVQLVESGGGVVQPGGSLRLSCAASAFTFSSYAMYWVRQAPGKGLEWVSAISSGGGSTDYADSVKGRFTISRDNSKNTLYLQMNSLRPEDTALYYCAADTLYTSLTWYSYWGQGTLVTVSS
notes: FLAG3-His6 tagged
B9: T0263018B11 G26K (VHH, name in Kabat numbering)
VHH: EVQLVESGGGVVQPGGSLRLSCAASKFTFSSYAMYWVRQAPGKGLEWVSAISSGGGSTDYADSVKGRFTISRDNSKNTLYLQMNSLRPEDTALYYCAADTLYTSLTWYSYWGQGTLVTVSS
notes: FLAG3-His6 tagged
B10: T0263018B11 G54D (VHH, name in Kabat numbering)
VHH: EVQLVESGGGVVQPGGSLRLSCAASGFTFSSYAMYWVRQAPGKGLEWVSAISSGDGSTDYADSVKGRFTISRDNSKNTLYLQMNSLRPEDTALYYCAADTLYTSLTWYSYWGQGTLVTVSS
notes: FLAG3-His6 tagged
B11: T0263018B11 G54T (VHH, name in Kabat numbering)
VHH: EVQLVESGGGVVQPGGSLRLSCAASGFTFSSYAMYWVRQAPGKGLEWVSAISSGTGSTDYADSVKGRFTISRDNSKNTLYLQMNSLRPEDTALYYCAADTLYTSLTWYSYWGQGTLVTVSS
notes: FLAG3-His6 tagged
B12: T0263018B11 G54V (VHH, name in Kabat numbering)
VHH: EVQLVESGGGVVQPGGSLRLSCAASGFTFSSYAMYWVRQAPGKGLEWVSAISSGVGSTDYADSVKGRFTISRDNSKNTLYLQMNSLRPEDTALYYCAADTLYTSLTWYSYWGQGTLVTVSS
notes: FLAG3-His6 tagged
B13: T0263018B11 L100aV (VHH, name in Kabat numbering)
VHH: EVQLVESGGGVVQPGGSLRLSCAASGFTFSSYAMYWVRQAPGKGLEWVSAISSGGGSTDYADSVKGRFTISRDNSKNTLYLQMNSLRPEDTALYYCAADTLYTSVTWYSYWGQGTLVTVSS
notes: FLAG3-His6 tagged
B14: T0263018B11 S30P (VHH, name in Kabat numbering)
VHH: EVQLVESGGGVVQPGGSLRLSCAASGFTFPSYAMYWVRQAPGKGLEWVSAISSGGGSTDYADSVKGRFTISRDNSKNTLYLQMNSLRPEDTALYYCAADTLYTSLTWYSYWGQGTLVTVSS
notes: FLAG3-His6 tagged
B15: T0263018B11 S31A (VHH, name in Kabat numbering)
VHH: EVQLVESGGGVVQPGGSLRLSCAASGFTFSAYAMYWVRQAPGKGLEWVSAISSGGGSTDYADSVKGRFTISRDNSKNTLYLQMNSLRPEDTALYYCAADTLYTSLTWYSYWGQGTLVTVSS
notes: FLAG3-His6 tagged
B16: T0263018B11 S31G (VHH, name in Kabat numbering)
VHH: EVQLVESGGGVVQPGGSLRLSCAASGFTFSGYAMYWVRQAPGKGLEWVSAISSGGGSTDYADSVKGRFTISRDNSKNTLYLQMNSLRPEDTALYYCAADTLYTSLTWYSYWGQGTLVTVSS
notes: FLAG3-His6 tagged
B17: T0263018B11 S31V (VHH, name in Kabat numbering)
VHH: EVQLVESGGGVVQPGGSLRLSCAASGFTFSVYAMYWVRQAPGKGLEWVSAISSGGGSTDYADSVKGRFTISRDNSKNTLYLQMNSLRPEDTALYYCAADTLYTSLTWYSYWGQGTLVTVSS
notes: FLAG3-His6 tagged
B18: T0263018B11 S56G (VHH, name in Kabat numbering)
VHH: EVQLVESGGGVVQPGGSLRLSCAASGFTFSSYAMYWVRQAPGKGLEWVSAISSGGGGTDYADSVKGRFTISRDNSKNTLYLQMNSLRPEDTALYYCAADTLYTSLTWYSYWGQGTLVTVSS
notes: FLAG3-His6 tagged
B19: T0263018B11 S100L (VHH, name in Kabat numbering)
VHH: EVQLVESGGGVVQPGGSLRLSCAASGFTFSSYAMYWVRQAPGKGLEWVSAISSGGGSTDYADSVKGRFTISRDNSKNTLYLQMNSLRPEDTALYYCAADTLYTLLTWYSYWGQGTLVTVSS
notes: FLAG3-His6 tagged
B20: T0263018B11 T28M (VHH, name in Kabat numbering)
VHH: EVQLVESGGGVVQPGGSLRLSCAASGFMFSSYAMYWVRQAPGKGLEWVSAISSGGGSTDYADSVKGRFTISRDNSKNTLYLQMNSLRPEDTALYYCAADTLYTSLTWYSYWGQGTLVTVSS
notes: FLAG3-His6 tagged
B21: T0263018B11 T28S (VHH, name in Kabat numbering)
VHH: EVQLVESGGGVVQPGGSLRLSCAASGFSFSSYAMYWVRQAPGKGLEWVSAISSGGGSTDYADSVKGRFTISRDNSKNTLYLQMNSLRPEDTALYYCAADTLYTSLTWYSYWGQGTLVTVSS
notes: FLAG3-His6 tagged
B22: T0263018B11 T57A (VHH, name in Kabat numbering)
VHH: EVQLVESGGGVVQPGGSLRLSCAASGFTFSSYAMYWVRQAPGKGLEWVSAISSGGGSADYADSVKGRFTISRDNSKNTLYLQMNSLRPEDTALYYCAADTLYTSLTWYSYWGQGTLVTVSS
notes: FLAG3-His6 tagged
B23: T0263018B11 T57H (VHH, name in Kabat numbering)
VHH: EVQLVESGGGVVQPGGSLRLSCAASGFTFSSYAMYWVRQAPGKGLEWVSAISSGGGSHDYADSVKGRFTISRDNSKNTLYLQMNSLRPEDTALYYCAADTLYTSLTWYSYWGQGTLVTVSS
notes: FLAG3-His6 tagged
B24: T0263018B11 T57K (VHH, name in Kabat numbering)
VHH: EVQLVESGGGVVQPGGSLRLSCAASGFTFSSYAMYWVRQAPGKGLEWVSAISSGGGSKDYADSVKGRFTISRDNSKNTLYLQMNSLRPEDTALYYCAADTLYTSLTWYSYWGQGTLVTVSS
notes: FLAG3-His6 tagged
B25: T0263018B11 T57Q (VHH, name in Kabat numbering)
VHH: EVQLVESGGGVVQPGGSLRLSCAASGFTFSSYAMYWVRQAPGKGLEWVSAISSGGGSQDYADSVKGRFTISRDNSKNTLYLQMNSLRPEDTALYYCAADTLYTSLTWYSYWGQGTLVTVSS
notes: FLAG3-His6 tagged
B26: T0263018B11 T96W (VHH, name in Kabat numbering)
VHH: EVQLVESGGGVVQPGGSLRLSCAASGFTFSSYAMYWVRQAPGKGLEWVSAISSGGGSTDYADSVKGRFTISRDNSKNTLYLQMNSLRPEDTALYYCAADWLYTSLTWYSYWGQGTLVTVSS
notes: FLAG3-His6 tagged
B27: T0263018B11 W100cE (VHH, name in Kabat numbering)
VHH: EVQLVESGGGVVQPGGSLRLSCAASGFTFSSYAMYWVRQAPGKGLEWVSAISSGGGSTDYADSVKGRFTISRDNSKNTLYLQMNSLRPEDTALYYCAADTLYTSLTEYSYWGQGTLVTVSS
notes: FLAG3-His6 tagged
B28: T0263018B11 W100cM (VHH, name in Kabat numbering)
VHH: EVQLVESGGGVVQPGGSLRLSCAASGFTFSSYAMYWVRQAPGKGLEWVSAISSGGGSTDYADSVKGRFTISRDNSKNTLYLQMNSLRPEDTALYYCAADTLYTSLTMYSYWGQGTLVTVSS
notes: FLAG3-His6 tagged
B29: T0263018B11 Y32A (VHH, name in Kabat numbering)
VHH: EVQLVESGGGVVQPGGSLRLSCAASGFTFSSAAMYWVRQAPGKGLEWVSAISSGGGSTDYADSVKGRFTISRDNSKNTLYLQMNSLRPEDTALYYCAADTLYTSLTWYSYWGQGTLVTVSS
notes: FLAG3-His6 tagged
B30: T0263018B11 Y98L (VHH, name in Kabat numbering)
VHH: EVQLVESGGGVVQPGGSLRLSCAASGFTFSSYAMYWVRQAPGKGLEWVSAISSGGGSTDYADSVKGRFTISRDNSKNTLYLQMNSLRPEDTALYYCAADTLLTSLTWYSYWGQGTLVTVSS
notes: FLAG3-His6 tagged
B31: T0263018B11 Y98W (VHH, name in Kabat numbering)
VHH: EVQLVESGGGVVQPGGSLRLSCAASGFTFSSYAMYWVRQAPGKGLEWVSAISSGGGSTDYADSVKGRFTISRDNSKNTLYLQMNSLRPEDTALYYCAADTLWTSLTWYSYWGQGTLVTVSS
notes: FLAG3-His6 tagged

Experiments:
cyno FcRn/b2M [1] = molecular target: T1, cyno FcRn/b2M (cyno, UniProt Q8SPV9 24-297; Q8SPW0 21-119, biotinylated); experiment: SPR off-rate; pH 7.4 vs pH 6.0;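 also: surface plasmon resonance with diluted periplasmic extracts flowed over ligand surfaces, 120 s association and 600–3600 s dissociation at 25 °C, running buffer containing 150 mM NaCl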
T1 construct: bought recombinant biotinylated protein (Immunitrack ITF05 or ACRO FCM-C82W5); also called cFcRn; cFcRn/cb2M
T1 sequence (Q8SPV9 24-297 limits assumed, chain 1 of 2): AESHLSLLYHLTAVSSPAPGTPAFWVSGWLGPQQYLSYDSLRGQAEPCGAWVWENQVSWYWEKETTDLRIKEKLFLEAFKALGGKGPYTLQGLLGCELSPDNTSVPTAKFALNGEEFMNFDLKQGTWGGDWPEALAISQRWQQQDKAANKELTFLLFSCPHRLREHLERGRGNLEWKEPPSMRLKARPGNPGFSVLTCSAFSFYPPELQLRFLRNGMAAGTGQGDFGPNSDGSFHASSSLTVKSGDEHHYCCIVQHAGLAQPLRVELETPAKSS
T1 sequence (Q8SPW0 21-119 limits assumed, chain 2 of 2): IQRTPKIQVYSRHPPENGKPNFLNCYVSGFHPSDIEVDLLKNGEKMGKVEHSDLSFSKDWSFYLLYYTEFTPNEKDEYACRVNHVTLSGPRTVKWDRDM
Method: (§1) All kinetic measurements have been performed on ProteOn XPR36 (BioRad Laboratories, Inc.), MASS-2 (Sierra sensors, Gmbh) or SPR-32 (Bruker Corporation). […] The phytip purified periplasmic extracts were diluted 1:10 in running buffer (CPA+150 mM NaCl+0.005% Tw20 at pH 5.5, pH 6.0 or pH 7.4) and injected over the ligand surfaces (association: 120 s at 45 μL/min; dissociation: 600s-3600 s at 45 μL/min). Experiments were carried out at 25° C.

cyno FcRn/b2M [2] = molecular target: T1, cyno FcRn/b2M; experiment: SPR pH 7.4;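 also: surface plasmon resonance kinetics, periplasmic extracts diluted 1:10 flowed over immobilized target at 25 °C, 120 s association then 600–3600 s dissociation, buffer with 150 mM NaCl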
Method: as §1

cyno FcRn/b2M [3] = molecular target: T1, cyno FcRn/b2M; experiment: SPR pH 6.0;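 also: surface plasmon resonance kinetics at 25 °C, diluted periplasmic extracts injected over immobilized ligand surfaces, 120 s association then 600–3600 s dissociation, running buffer containing 150 mM NaCl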
Method: as §1

human FcRn/b2M = molecular target: T2, human FcRn/b2M (human, UniProt P61769 21-119, biotinylated); experiment: SPR pH 6.0;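 also: surface plasmon resonance kinetics at 25 °C, diluted periplasmic extracts injected over immobilized ligand surfaces, 120 s association then 600–3600 s dissociation, running buffer containing 150 mM NaCl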
T2 construct: bought recombinant biotinylated protein (ACRO FCM-H82W4 or Immunitrack ITF01); also called hFcRn; hFcRn/hb2M
T2 sequence (chain, as listed by the source limits assumed, chain 1 of 2): as the sequence (Q8SPV9 24-297 limits assumed, chain 1 of 2) above, with D39N, Q44E, S99G, G189S, N190S, M217L, T269S counted along it
T2 sequence (P61769 21-119 limits assumed, chain 2 of 2): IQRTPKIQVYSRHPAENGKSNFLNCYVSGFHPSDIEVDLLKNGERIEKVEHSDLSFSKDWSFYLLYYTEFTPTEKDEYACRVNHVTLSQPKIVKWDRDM
Method: as §1

Binder | kd ratio pH 7.4/6.0 (cyno FcRn/b2M [1]) | further results
B1 | 49 | –
B2 | 12 | –
B3 | 10 | –
B4 | 69 | –
B5 | – | koff (cyno FcRn/b2M [2]): 0.083 s⁻¹; koff (cyno FcRn/b2M [3]): 0.0015 s⁻¹
B6 | – | koff (human FcRn/b2M): 0.0026 s⁻¹; koff (cyno FcRn/b2M [3]): 0.0019 s⁻¹
B7 | 45 | –
B8 | 116 | –
B9 | 101 | –
B10 | 41 | –
B11 | 35 | –
B12 | 31 | –
B13 | 39 | –
B14 | 41 | –
B15 | 61 | –
B16 | 58 | –

Binder | kd ratio pH 7.4/6.0 (cyno FcRn/b2M [1]) | further results
B17 | 89 | –
B18 | 54 | –
B19 | 62 | –
B20 | 64 | –
B21 | 85 | –
B22 | 36 | –
B23 | 41 | –
B24 | 40 | –
B25 | 34 | –
B26 | 54 | –
B27 | 71 | –
B28 | 59 | –
B29 | 70 | –
B30 | 36 | –
B31 | 45 | –
